In assay [1] the target is CD3ε homodimer protein (human) (UniProt P07766). The experiment in a line: SPR, CD3e immobilized. In general terms: SPR reads the build-up and loss of mass on a sensor chip optically.
Assay [2] shares this target. The experiment in a line: SPR, immobilized CD3ε homodimer.
Assay [3] shares this target. The experiment in a line: SPR, CD3ε homodimer on chip.

Chain of CD3ε homodimer protein (human) (P07766 23-126 limits assumed): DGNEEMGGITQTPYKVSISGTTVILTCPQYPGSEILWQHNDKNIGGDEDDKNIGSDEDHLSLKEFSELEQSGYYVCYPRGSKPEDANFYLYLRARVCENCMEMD

B1: GLS3000 H27dM (antibody, IgG1, name in Kabat numbering, V domains shown)
VH: QVQLVESGGGVVQPGRSLRLSCAASGFTFSNAWMHWVRQAPGKGLEWVAQIKAKSNNYATYYAESVKGRFTISRDDSKNSLYLQMNSLKTEDTAVYYCRYVHYGAYYGVDAWGQGTTVTVSS
VL: DIVMTQSPLSLPVTPGEPASISCRSSQSLVMSNRNTYLHWYQQKPGQAPRLLIYKVSNRFSGVPDRFSGSGSGTDFTLKISRVEAEDVGVYYCGQGTQVPYTFGQGTKLEIK
Consider B1, for which, in assay [1], the KD ratio to GLS3000 amounted to 3.43. Besides, the ratio of amounts bound (vs GLS3000) in assay [2] was determined as 0.03.

B2: CE115HA000 V95E (antibody, name in Kabat numbering, V domains shown)
VH: QVQLVESGGGVVQPGRSLRLSCAASGFTFSNAWMHWVRQAPGKGLEWVAQIKAKSNNYATYYAESVKGRFTISRDDSKNSLYLQMNSLKTEDTAVYYCRYEHYGAYYGVDAWGQGTTVTVSS
VL: DIVMTQSPLSLPVTPGEPASISCRSSQSLVHSNRNTYLHWYQQKPGQAPRLLIYKVSNRFSGVPDRFSGSGSGTDFTLKISRVEAEDVGVYYCGQGTQVPYTFGQGTKLEIK
Regarding B2, the ratio of amounts bound vs CE115HA000 in assay [3] came out at 9.24.

B3: GLS3000 H27dD (antibody, IgG1, name in Kabat numbering, V domains shown)
VH: QVQLVESGGGVVQPGRSLRLSCAASGFTFSNAWMHWVRQAPGKGLEWVAQIKAKSNNYATYYAESVKGRFTISRDDSKNSLYLQMNSLKTEDTAVYYCRYVHYGAYYGVDAWGQGTTVTVSS
VL: DIVMTQSPLSLPVTPGEPASISCRSSQSLVDSNRNTYLHWYQQKPGQAPRLLIYKVSNRFSGVPDRFSGSGSGTDFTLKISRVEAEDVGVYYCGQGTQVPYTFGQGTKLEIK
As to B3, the KD ratio to GLS3000 in assay [1] is 13600.

B4: CE115HA000 D101R (antibody, name in Kabat numbering, V domains shown)
VH: QVQLVESGGGVVQPGRSLRLSCAASGFTFSNAWMHWVRQAPGKGLEWVAQIKAKSNNYATYYAESVKGRFTISRDDSKNSLYLQMNSLKTEDTAVYYCRYVHYGAYYGVRAWGQGTTVTVSS
VL: DIVMTQSPLSLPVTPGEPASISCRSSQSLVHSNRNTYLHWYQQKPGQAPRLLIYKVSNRFSGVPDRFSGSGSGTDFTLKISRVEAEDVGVYYCGQGTQVPYTFGQGTKLEIK
In the case of B4, in assay [3], the ratio of amounts bound vs CE115HA000 was determined as 9.24.

B5: CE115HA000 Y97S (antibody, name in Kabat numbering, V domains shown)
VH: QVQLVESGGGVVQPGRSLRLSCAASGFTFSNAWMHWVRQAPGKGLEWVAQIKAKSNNYATYYAESVKGRFTISRDDSKNSLYLQMNSLKTEDTAVYYCRYVHSGAYYGVDAWGQGTTVTVSS
VL: DIVMTQSPLSLPVTPGEPASISCRSSQSLVHSNRNTYLHWYQQKPGQAPRLLIYKVSNRFSGVPDRFSGSGSGTDFTLKISRVEAEDVGVYYCGQGTQVPYTFGQGTKLEIK
In the case of B5, the ratio of amounts bound vs CE115HA000 in assay [3] amounted to 9.28.

B6: CE115HA000 Y97R (antibody, name in Kabat numbering, V domains shown)
VH: QVQLVESGGGVVQPGRSLRLSCAASGFTFSNAWMHWVRQAPGKGLEWVAQIKAKSNNYATYYAESVKGRFTISRDDSKNSLYLQMNSLKTEDTAVYYCRYVHRGAYYGVDAWGQGTTVTVSS
VL: DIVMTQSPLSLPVTPGEPASISCRSSQSLVHSNRNTYLHWYQQKPGQAPRLLIYKVSNRFSGVPDRFSGSGSGTDFTLKISRVEAEDVGVYYCGQGTQVPYTFGQGTKLEIK
For the molecule B6, the ratio of amounts bound vs CE115HA000 in assay [3] came out at 9.27.

Values taken from patent US20220040297A1.
